Results on 2 substances are retold here after paper PMC2710508.

In test [1] the target is F-actin from chicken pectoral skeletal muscle (chicken) (UniProt P68139). Kind of test: co-sedimentation; tropomyosin 0.1–10 µM with 0.12–12 µM troponin T 70–170 (1.2× molar excess) and 5 µM F-actin, 20°C, 250 mM NaCl, 10 mM TrisHCl pH 7.5, 2 mM MgCl2, 0.5 mM DTT; pellets and supernatants by SDS-PAGE and densitometry; apparent constant (Kapp) and Hill coefficient from a fit to the Hill equation.

The target is the same in test [2]. Kind of test: differential scanning calorimetry; tropomyosin 15 µM and TnT 70–170 18 µM with phalloidin (36 µM) stabilized F-actin (24 µM), 100 mM NaCl, 10 mM Hepes pH 7.0, 2 mM MgCl2, 1 mM DTT; three heating scans at 1°C/min; peak of unfolding/dissociation of actin-bound tropomyosin. For orientation: In DSC, transitions show as peaks or steps in heat flow.
In the next test the target is F-actin (UniProt P68133). Kind of test: given as Ka. Particulars: cited from earlier work.

Take “P5→P3 tropomyosin (residues 165–188 of P5 replace residues 88–111 of P3) (from UniProt P04692 1-284) (natural protein)”: the Ka in test [1] turned out to be 1.33e+06 M⁻¹. In test [2], this substance displayed a DSC TM of dissociation from F-actin (TM3) of 37.6 °C and a DSC ΔΔH (with minus without F-actin) of 37.6 kcal/mol.
As for tropomyosin (from UniProt P09493), the association constant (Ka) in the test with F-actin is 400 µM.
